Measurements taken from patent US20080227698A1, “OLIGOPEPTIDES FOR TREATMENT OF OSTEOPOROSIS AND OTHER BONE DISEASES AND METHODS THEREOF” (Washington University, priority 2005, published 2008).

Key:
LRP6 [1] = experiment: ^125I-Mesd cell surface ligand binding to LRP6-transduced HT1080 cells; set-up: species or system human; conditions: HT1080 cells transduced with vector alone, ^125I-Mesd 5 nM, 4° C.
Protocol: To examine whether Mesd binds with high affinity to […] at the cell surface, cell surface ligand binding experiments were performed with cells stably transduced with LRP6 cDNA. Human HT1080 cells, which express undetectable levels of LRP6, were transduced with a viral vector alone (pLNCX2) or with vector containing LRP6 cDNA (Li, Y., Oncogene 23: 9129-9135, 2004) and used for ^125I-Mesd binding (FIG. 1A). ^125I-Mesd (5 nM) reached maximal binding after 2 hours incubation at 4° C. with LRP6-expressing HT1080 cells (FIG. 1A).
(A) Time course of ^125I-Mesd (5 nM) binding to LRP6-transduced HT1080 cells and the control cells. Assay was carried out for the indicated periods at 4° C. in the absence (total) or presence of 500 nM Mesd (non-specific). (B) Saturation binding of ^125I-Mesd to LRP6-transduced HT1080 cells and the control cells. Assay was carried out at indicated concentrations for 3 hours at 4° C. in the absence (total) or presence (non-specific) of 500 nM Mesd. (C) Scatchard plots of data in B. All values are the average of triple determinations with the s.d. indicated by error bars.
Cells (2×10^5) were seeded into 12-well dishes 1 day prior to assay. […] Thereafter, overlying buffer containing unbound ligand was removed, and cell monolayers were washed and lysed in low-SDS lysis buffer (62.5 mM Tris-HCl pH 6.8, 0.2% SDS, 10% v/glycerol) and counted.

LRP6 [2] = target: LRP6 (Homo sapiens, UniProt O75581); experiment: LRP6-mediated ^125I-DKK1 degradation in LRP6-transduced HT1080 cells; type: cell-based; set-up: plasmid pCS-Myc-hLRP6 containing the full-length human LRP6 cDNA; HA; expressed in transfected cells; host or cells: human HT1080 cells, stably transduced (pLNCX2 retroviral vector); conditions: 500 nM competitor, 4 hours at 37° C.
Protocol: Ligand degradation was performed using the methods as described (Li, Y., J. Biol. Chem. 275: 17187-17194, 2000). Briefly, 2×10^5 cells were seeded into 12-well dishes 1 day prior to assay. Pre-warmed assay buffer (minimal Eagle's medium containing 0.6% BSA with radioligand, 0.6 ml/well) was added to cell monolayers in the absence or the presence of unlabeled 500 nM RAP or 500 nM Mesd, followed by incubation for 4 hours at 37° C. Thereafter, the medium overlying the cell monolayers was removed and proteins were precipitated by addition of BSA to 10 mg/ml and trichloroacetic acid to 20%. […] After each time point, the plates were quickly placed on ice and the assay buffer was replaced with cold stop/strip solution. ^125I-anti-HA IgG that remained on the cell surface was stripped by incubation of cell monolayers with cold stop/strip solution for a total of 20 minutes (0.75 ml for 10 minutes, twice) and counted. Cell monolayers were then solubilized with low-SDS lysis buffer and counted. […] The fraction of internalized ^125I-anti-HA IgG after each time point was calculated and plotted.
RAP is a receptor antagonist for members of the LDLR family, and is able to inhibit the binding of most known ligands of the LDLR family members. […] Cell-surface-bound Myc-tagged DKK proteins were fixed and detected by immunofluorescence staining with anti-Myc antibody. […]

LRP6 (Homo sapiens, UniProt O75581), sequence (O75581 20-1613): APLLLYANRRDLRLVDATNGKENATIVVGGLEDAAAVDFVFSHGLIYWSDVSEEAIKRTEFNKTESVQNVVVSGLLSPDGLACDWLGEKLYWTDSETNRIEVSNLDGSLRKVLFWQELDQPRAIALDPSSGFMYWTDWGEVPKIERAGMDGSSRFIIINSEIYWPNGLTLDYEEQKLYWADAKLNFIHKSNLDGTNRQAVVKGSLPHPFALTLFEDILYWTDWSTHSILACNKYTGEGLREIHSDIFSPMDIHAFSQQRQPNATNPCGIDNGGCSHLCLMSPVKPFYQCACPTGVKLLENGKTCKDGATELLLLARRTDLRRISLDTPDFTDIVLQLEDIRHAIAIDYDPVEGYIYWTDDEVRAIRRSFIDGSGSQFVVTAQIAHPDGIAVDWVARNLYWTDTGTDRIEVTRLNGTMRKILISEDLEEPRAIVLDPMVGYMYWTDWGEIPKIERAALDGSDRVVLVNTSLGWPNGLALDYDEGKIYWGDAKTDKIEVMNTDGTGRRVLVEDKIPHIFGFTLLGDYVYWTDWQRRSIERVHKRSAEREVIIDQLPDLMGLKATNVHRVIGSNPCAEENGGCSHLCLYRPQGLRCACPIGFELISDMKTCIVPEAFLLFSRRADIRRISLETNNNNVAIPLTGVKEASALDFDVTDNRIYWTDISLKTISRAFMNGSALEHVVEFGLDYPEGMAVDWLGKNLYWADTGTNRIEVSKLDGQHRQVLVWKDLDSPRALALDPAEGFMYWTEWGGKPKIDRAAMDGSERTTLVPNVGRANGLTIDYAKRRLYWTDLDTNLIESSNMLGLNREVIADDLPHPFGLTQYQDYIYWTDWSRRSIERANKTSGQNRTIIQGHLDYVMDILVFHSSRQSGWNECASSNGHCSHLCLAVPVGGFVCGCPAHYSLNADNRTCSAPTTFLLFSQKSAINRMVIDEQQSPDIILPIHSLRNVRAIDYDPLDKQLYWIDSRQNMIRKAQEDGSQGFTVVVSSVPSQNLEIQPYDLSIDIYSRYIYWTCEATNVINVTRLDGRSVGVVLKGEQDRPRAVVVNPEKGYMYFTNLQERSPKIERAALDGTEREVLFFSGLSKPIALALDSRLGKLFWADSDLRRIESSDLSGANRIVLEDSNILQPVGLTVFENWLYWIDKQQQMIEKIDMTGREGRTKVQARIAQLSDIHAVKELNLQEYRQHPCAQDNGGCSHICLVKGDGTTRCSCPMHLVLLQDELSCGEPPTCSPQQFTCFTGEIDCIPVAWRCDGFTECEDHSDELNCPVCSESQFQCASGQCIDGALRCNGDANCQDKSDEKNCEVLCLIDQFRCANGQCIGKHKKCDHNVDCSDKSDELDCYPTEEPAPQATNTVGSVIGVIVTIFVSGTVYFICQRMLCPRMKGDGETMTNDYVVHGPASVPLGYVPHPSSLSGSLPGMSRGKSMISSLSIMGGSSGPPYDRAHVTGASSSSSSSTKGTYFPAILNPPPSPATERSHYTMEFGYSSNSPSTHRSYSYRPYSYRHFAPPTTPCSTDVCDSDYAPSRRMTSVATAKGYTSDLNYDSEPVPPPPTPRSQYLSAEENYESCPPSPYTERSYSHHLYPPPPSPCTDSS

B1: Mesd: recombinant wild-type mouse Mesd, polyhistidine tail at the N-terminus, lacks the signal peptide, expressed in E. coli (protein)
chain: ADTPGEATPPPRKKKDIRDYNDADMARLLEQWEKDDDIEEGDLPEHKRPSAPIDFSKLDPGKPESILKMTKKGKTLMMFVTVSGNPTEKETEEITSLWQGSLFNANYDVQRFIVGSDRAIFMLRDGSYAWEIKDFLVSQDRCAEVTLEGQMYPGKGGGSKEKNKTKPEKAKKKEGDRKPRASKEDNRAGSRREDL
modifications: left off: small tags and cut ends
notes: recombinant wild-type mouse Mesd, polyhistidine tail at the N-terminus, lacks the signal peptide, expressed in E. coli
LRP6 [1]
  ^125I-Mesd binding to control cells (pLNCX2): No significant ^125I-Mesd binding
LRP6 [2]
  Effect of excess unlabeled competitor on increased DKK1 degradation: abolished
